This is an account of results in the RNAGym collection of RNA variant scans (doi:10.1073/pnas.2313332121).

B1: TPR t1 (parent)
chain: GACCAAUCUGCCCUCAGAGCUCGAGAACAUCUUCGGAUGCAGAGGAGGCAGGCUUCGGUGGCGCGAUAGCGCCAACGUCCUCAACCUCCAAUGCAUCCCACCACAUGAUGAUGCCUGAAGAGCCUUGGUUUUUUG

Variants of B1 are the subject of the data set. Nature of the data set: polymerase ribozyme fitness, log enrichment relative to wild type (log ratio); higher = more active; in vitro selection for triplet polymerase activity. The method in brief: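 Streptavidin-bead capture of gel-excised extended constructs, followed by RT-PCR, closed a single triplicate in vitro selection round. That round began by annealing PCR-built, transcribed mutant libraries of each subunit of a heterodimeric triplet polymerase ribozyme with a biotinylated primer, the partner subunit and triplets, then incubating them frozen at −7 °C. After Illumina sequencing of inputs and outputs, genotypes needed ≥10 input reads and ≥1 read per output. Fitness is the base-2 logarithm of genotype enrichment over wild-type enrichment, using inverse-variance-weighted replicate averages.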
On to C12G C124G, for which the “polymerase ribozyme fitness (log ratio)” value stood at 0.742.
As for U59G C86U A95U C115A C123U, the “polymerase ribozyme fitness (log ratio)” value was -2.76.
As to C70U G77A U81C, the “polymerase ribozyme fitness (log ratio)” value was -1.19.
The result for C64A U92A C98U G110C C114A U133A reads -6.59; that for A26U C70U, -4.13.
The result for C98U G110U reads -2.66.
As to G42A G113A, the “polymerase ribozyme fitness (log ratio)” value was -2.62.
Take A5C C12G U14A G63U: the “polymerase ribozyme fitness (log ratio)” value was -2.95.
With C73U A119G, the “polymerase ribozyme fitness (log ratio)” value was found to be 1.13.
Then C12A C15U G71U A121C G127U, with 0.118.
Take G42A C70A C102U C114G U125A: the “polymerase ribozyme fitness (log ratio)” value was -6.46.
In the case of A6C C12G G52A G63U U106A, the “polymerase ribozyme fitness (log ratio)” value was -2.76.
As to C80U C102A, the “polymerase ribozyme fitness (log ratio)” value was -2.21.
Then C13U C20U G61U C114A, with 0.523; and C3U A24G G47C, with -3.61.
Regarding C13G G58C U92C, the “polymerase ribozyme fitness (log ratio)” value was -3.7.
Then C22G G120A, with -2.9; and G10U G44C C88U A105G G120C, with -3.52; and U21A G61A U96C, with -0.247.
On to G58C U112C C114U, for which the “polymerase ribozyme fitness (log ratio)” value was -1.68.
Then C12U G61U, with 0.129; and U38A C49G U55G, with -2.77; and G120A U126A U131G, with 0.608.
Then C76A G110A, with -1.79; and C12U C20G A43C G48A, with -5.39; and G17C G61U, with -3.71.
Turning to C53U C62U, the “polymerase ribozyme fitness (log ratio)” value is -1.01.
Then A46U A91C C115G, with -3.55; and A27U G39U C72A, with -3.78; and A16U C124U, with 0.484.
Regarding C62A G110C, the “polymerase ribozyme fitness (log ratio)” value was -5.17.
Then U7C G10A C11G G93U, with -1.34; and C13A C49U U87G C123A U131G, with -0.403.
For the variant C40G G120A, the “polymerase ribozyme fitness (log ratio)” value is 0.215.
Consider A50U G51A C64U C82A A119G, for which the “polymerase ribozyme fitness (log ratio)” value was -0.277.
For the variant C8U G61A C99U, the “polymerase ribozyme fitness (log ratio)” value is -2.24.
C8A C22U C53G G61A U106A A118G: the “polymerase ribozyme fitness (log ratio)” value is -4.47.
Then A6C G10A C13A A75G U125G, with -0.518.
Then G69U C72U C114A G128A, with -3.08.
Then G42C G71C C79U C80U C97A A121U, with -6.28; and G10C C15G G69C, with -4.46.
As to A27C C53A C94G, the “polymerase ribozyme fitness (log ratio)” value was -4.6.
Then C11A G17U G61C A84G C124A, with -4.74; and C13U A37G C101U, with -0.644.
The result for C49G A90C U126C reads -3.39; that for A2U C79U C104A, -4.26.
The result for C56A G107C reads -5.28; that for A18G C89A C114G U133A, -6.53.
A95U U96A C101G U106C C124A: the “polymerase ribozyme fitness (log ratio)” value is -4.41.
The result for C79A G93U reads -2.82; that for G48C G60C G110A, -2.42; that for C12A U133A, -0.907.
Consider U7C A91U C94G, for which the “polymerase ribozyme fitness (log ratio)” value is -2.67.
Then C34A C123G, with -0.401.
The result for A75G reads 0.101; that for G60U U92C U106C G107A U112C, -6.06.
In the case of G44U U112A, the “polymerase ribozyme fitness (log ratio)” value was determined as 0.425.
The result for C20G G122A reads -4.
The result for U30A U129G reads -4.77; that for G47A G51C G63U C115A G120U U131G, -4.36.
In the case of G19A A43U C101A U129G, the “polymerase ribozyme fitness (log ratio)” value was -4.15.
A66G C72U C80U C123A: the “polymerase ribozyme fitness (log ratio)” value is -3.12.
For C82A U112G, the “polymerase ribozyme fitness (log ratio)” value was determined as 0.0724.
With C64U C98U G120U, the “polymerase ribozyme fitness (log ratio)” value is -0.972.
The result for A84G U130G reads -1.3; that for C8U C13U A43G, -1.25.
For A24U G69U, the “polymerase ribozyme fitness (log ratio)” value was -3.76.
The result for A46U G107U reads -5.66; that for A6C G71C G113U, -4.81; that for U14A C114U, -5.22.
Then C4A U112A A119U C123U U125C, with -0.636; and C53A C79U C94G C101A, with -1.64; and C62U G113A, with -0.93.
In the case of U32G C72U C102U G113A, the “polymerase ribozyme fitness (log ratio)” value is -7.34.
Take C8A C12U C13G G69A C98U: the “polymerase ribozyme fitness (log ratio)” value was -4.08.
The result for C15U G42U U87G C88A C101U G113U reads -5.85; that for A66U C80A, -5.71.
Then C97U C114A, with -1.76.
The result for U38C C56U reads -0.488; that for G44C C86U U96G U129C, -2.63.
On to G52A C86A A111C, for which the “polymerase ribozyme fitness (log ratio)” value was -3.28.
In the case of G71U C101U, the “polymerase ribozyme fitness (log ratio)” value was -0.379.
With A27U A43G, the “polymerase ribozyme fitness (log ratio)” value is -5.43.
Then U87G C123A, with 0.557; and A41U A46U G63U C115A G120U C123G, with -3.28.
For U112G G127A, the “polymerase ribozyme fitness (log ratio)” value is -1.12.
Then C3U U55C G120C, with -1.02; and C4U C34A G71C A83G C98U U112A, with -5.16; and A16C C72G C82G G120C, with -1.82.
Take U7A C82A U116C C123A: the “polymerase ribozyme fitness (log ratio)” value was -2.73.
As to G48U C88G G113C A121C, the “polymerase ribozyme fitness (log ratio)” value is -3.7.
As for A5U G10A G36C G60C U78C C124U, the “polymerase ribozyme fitness (log ratio)” value is -2.58.
The result for C20A G44U G69A C86A C123G reads -6.49; that for U109A U130A, -5.09.
The result for G44C G63U reads -1.98.
The result for G58C C98G G120C C123U reads -6.14; that for G71A A100U, -1.77.
For the variant G47C C79A, the “polymerase ribozyme fitness (log ratio)” value is -5.18.
Then A74C G120C, with 1.48; and U67A A74U C94G C101A G113C, with -7.83.
The result for A2C G69A C114A reads -4.75; that for C53A C62G A108G, -3.91; that for C62U G77A U87A A111U G122U, -5.7.
Regarding A2C C73U, the “polymerase ribozyme fitness (log ratio)” value is -1.65.
G17A G63A C82U: the “polymerase ribozyme fitness (log ratio)” value was -5.43.
Then G52A U87C C99U, with -3.97.
Then G51U G120A, with -2.64; and C12A G60C U106G, with -2.28; and C73U U109G, with -4.33.
Then U55G G63U A108G, with -2.44; and C15A C70G C99A G117A C124A G128A, with -6.67; and C20A G42U G120A, with -3.01.
For the variant C20U U55G, the “polymerase ribozyme fitness (log ratio)” value was -1.39.
C40U A95G: the “polymerase ribozyme fitness (log ratio)” value is -1.37.
G63C C101U C102U G120C: the “polymerase ribozyme fitness (log ratio)” value was -2.17.
C4U G10U G51U C79G: the “polymerase ribozyme fitness (log ratio)” value is -3.58.
The result for A46G G127A reads -1.96; that for C4A C72U U109A C115U, -6.54.
The result for A6C G35C G57U G58U G60C U81G A111G U125C G135A reads -6.83.
For the variant G61C C115U, the “polymerase ribozyme fitness (log ratio)” value was -3.07.
Then C56G A74U C124U, with 0.777; and G69A U96C, with -3.08.
With G52U A105G, the “polymerase ribozyme fitness (log ratio)” value is -3.17.
C80U U112A: the “polymerase ribozyme fitness (log ratio)” value stood at 0.959.
Then C64U A84C C94G, with -1.23.
On to C70U G77U U78C A95U C123G, for which the “polymerase ribozyme fitness (log ratio)” value amounted to 0.382.
The result for C49U G60U reads -0.405.
The result for A83G C97A reads -5.59; that for C28U A50U C123U, -3.55.
Take A5C C76U: the “polymerase ribozyme fitness (log ratio)” value was -0.646.
Then C11A C13A A74C, with -2.72; and C73G G120C, with 0.461; and C13A G63A A74C G128A, with -5.18.
Then C28U U55C G71A, with -3.34.
For the variant C3U C12G C85U, the “polymerase ribozyme fitness (log ratio)” value is -1.47.
Consider C13G G48U C53A U59G, for which the “polymerase ribozyme fitness (log ratio)” value is -1.72.
The result for U9A A43C C82G A108G C123G U131A reads -5.6; that for G45U U132A, -1.91; that for A27U G77U U78G A111C, -6.32.
As to G63U A91C U92G, the “polymerase ribozyme fitness (log ratio)” value is -4.45.
Turning to G52U A68G G77C, the “polymerase ribozyme fitness (log ratio)” value was -4.82.
On to A41U U92A, for which the “polymerase ribozyme fitness (log ratio)” value was -0.903.
The result for G36C C72A C94A C104U reads -3.64.
The result for C53U G71U U81A C123U G135A reads -0.21; that for G19A C56U, -2.34; that for A18G G93A, -3.21.
For C20U C72U C98A, the “polymerase ribozyme fitness (log ratio)” value was -5.82.
The result for C34U U112A G122A reads -5.94; that for C3A G57A C114U, -4.29.
With U9C C40G G69A C101U, the “polymerase ribozyme fitness (log ratio)” value is -2.3.
The result for C8A G110C reads -3.59; that for C12U C15A U125G U133A, -1.18.
On to C8U U55C C64G U112A, for which the “polymerase ribozyme fitness (log ratio)” value is -6.22.
As to A26G G48A G63U C101G, the “polymerase ribozyme fitness (log ratio)” value is -4.73.
Turning to A5G C13U G36C C62U C85A U112A G117U, the “polymerase ribozyme fitness (log ratio)” value is -1.72.
The result for C70A G127C reads -2.17.
The result for A2G U78A G128A reads -2.62; that for C49A C56U G120U, 0.2.
As for U59C C89A A95C G113C, the “polymerase ribozyme fitness (log ratio)” value is -4.48.
Take A5U G39C A105U: the “polymerase ribozyme fitness (log ratio)” value is -3.56.
Then G52C C114U G127U U133A, with -6.16; and C11A C12A A41G C89U, with -2.15; and C12U U14A G110U G113A U130C, with -4.17.
Then C62U G110C, with -3.93; and G58C C102A G120A, with -2.34.
Then C12U C62U C80G U109G C114A, with -6.17; and C8U A26U C49G C79U G93A, with -4.36.
